Measured values taken from patent US20230039279.

What was measured:
[1] = target: T1, HNE peptide substrate H2, GRCR-PMAVVQSVP-RCRG (not fully specified)
T1 chain: GRCRPMAVVQSVPRCRG

[2] = target: T2, MMP-9 sensitive peptide (GPRSLSG-RRCG) linked ibuprofen (not fully specified)
T2 chain: GPRSLSGRRCG

B1: human neutrophil elastase (HNE) (protein)
chain: IVGGRRARPHAWPFMVSLQLRGGHFCGATLIAPNFVMSAAHCVANVNVRAVRVVLGAHNLSRREPTRQVFAVQRIFENGYDPVNLLNDIVILQLNGSATINANVQVAQLPAQGRRLGNGVQCLAMGWGLLGRNRGIASVLQELNVTVVTSLCRRSNVCTLVRGRQAGVCFGDSGSPLVCNGLIHGIASFVRGGCASGLYPDAFAPVAQFVNWIDSIIQ
[1]
  degradation of H2-M2 combinational hydrogel and release of PLGA particles over 24 hours: H2 and M2 peptide substrates were preferentially cleaved by HNE and MMP-9 proteases respectively
[2]
  maximum cumulative drug release at 48 hours from the dual-responsive conjugate hydrogel, HNE alone (1 µg/ml): maximum cumulative drug release reached 24%, which was much lower than the release in enzyme MMP-9 solution
  specificity of protease-triggered ibuprofen liberation (FIG. 10B): the peptide sequence, GPRSLSGRRCG (SEQ ID NO: 20), as a spacer illustrated a good specificity toward MMP-9 compared to cathepsin B and human neutrophil elastase (HNE)
